Experimental findings from patent US20030079244A1, “Agent for treatment of exocrine gland disorders and transgenic mouse useful for screening the same” (R-TECH UENO, LTD., priority 1997, published 2003) are described below.

Data set [1] has as its system salivary gland epithelial cells. Description: Cytotoxicity test against salivary gland epithelial cells (51Cr release). The note with it: CD4-positive T-cell effector cells treated with mouse IL-10 (0.1 mg/ml) with or without anti-FASL antibody (10 μg/ml); effector:target 20-fold; 4 hours at 37° C.; 51Cr in supernatant. The class given is cell-based. An excerpt: Cytotoxicity test against salivary gland epithelial cells
Spleen isolated from a B6 mouse was chopped into small pieces, the cells were collected with a syringe having 22-gage injection needle and the collected cells were passed through a meshed screen to obtain cell suspension. CD4-positive T-cells were isolated from the cell suspension by means of dynabeads to provide effector cells.
Salivary gland of the same mouse as above was immersed in DMEM medium containing 10% fetal calf serum supplemented with collagenase (750 units/ml), EDTA (0.76 mg/ml) and hyaluronidase type IV (500 units/ml) to isolate the salivary gland tissue, and the obtained cells were incubated in DMEM medium containing 10% fetal calf serum for 10 to 14 days in a CO2 incubator. The cultured cells were then analyzed with flow-cytometry and were confirmed that 85-95% of them were epithelial cells, and were used as target cells.
The target cells were labeled with 51Cr. Half of the effector cells were treated with mouse IL-10 (0.1 mg/ml) alone, whereas the other half were treated with mice IL-10 (0.1 mg/ml) and anti mice Fas ligand (FASL) neutralizing antibody (10 μg/ml) . […]
The amount of 51Cr in the supernatant of the respective culture was measured and the cytotoxic ratio was calculated by subtracting the 51Cr amount of the target cells cultured without effector cells.

For data set [2], the system named is normal mouse spleen cells. Description: Effect of IL-10 on the expression of Fas ligand (flow-cytometry). The settings on record: treated in vitro, analyzed 48 hours after the treatment; versus non-stimulated cells. The data set is classed as cell-based. The method, then:
In order to study the role of IL-10 in Fas-ligand expression, normal mouse spleen cells were isolated, treated with mouse recombinant IL-10 in vitro and then analyzed with flow-cytometry 48 hours after the treatment.

B1: IL-10: mouse interleukin-10 used to treat effector cells and spleen cells (protein, UniProt P18893 19-178, looked up)
Interleukin-10: SRGQYSREDNNCTHFPVGQSHMLLELRTAFSQVKTFFQTKDQLDNILLTDSLMQDFKGYLGCQALSEMIQFYLVEVMPQAEKHGPEIKEHLNSLGEKLKTLRMRLRRCHRFLPCENKSKAVEQVKSDFNKLQDQGVYKAMNEFDIFINCIEAYMMIKMKS
Take B1: the cytotoxic ratio in data set [1] was determined as 29.5%. For the same molecule, the Fas ligand expression entry in data set [2] is “Significantly higher amount of Fas ligand expression”.
